T1: DLG3_3, Q92796
T1 sequence (Q92796 374-475, limits assumed, looked up): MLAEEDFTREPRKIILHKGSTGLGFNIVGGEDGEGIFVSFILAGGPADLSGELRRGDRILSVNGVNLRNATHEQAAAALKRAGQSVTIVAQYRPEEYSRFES

T2: MPDZ_10, O75970
T2 sequence (O75970 1624-1722, limits assumed, looked up): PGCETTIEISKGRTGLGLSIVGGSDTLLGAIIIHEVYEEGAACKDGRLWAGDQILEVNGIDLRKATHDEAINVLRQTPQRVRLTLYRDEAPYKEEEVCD

T3: GRIP1_4, Q9Y3R0
T3 sequence (Q9Y3R0 467-571, limits assumed, looked up): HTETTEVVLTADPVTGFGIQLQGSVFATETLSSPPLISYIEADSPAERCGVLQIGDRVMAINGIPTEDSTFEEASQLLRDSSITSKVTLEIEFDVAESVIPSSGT

T4: DLG3_2, Q92796
T4 sequence (Q92796 221-321, limits assumed, looked up): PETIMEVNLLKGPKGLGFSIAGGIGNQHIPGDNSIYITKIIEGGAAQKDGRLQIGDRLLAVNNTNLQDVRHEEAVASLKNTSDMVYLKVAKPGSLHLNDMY

T5: RHPN1, Q8TCX5
T5 sequence (Q8TCX5 508-602, limits assumed, looked up): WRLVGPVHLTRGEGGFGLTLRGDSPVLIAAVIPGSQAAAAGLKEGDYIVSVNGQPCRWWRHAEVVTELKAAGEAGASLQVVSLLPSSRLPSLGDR

T6: SYNJ2BP, P57105
T6 sequence (P57105 8-110, limits assumed, looked up): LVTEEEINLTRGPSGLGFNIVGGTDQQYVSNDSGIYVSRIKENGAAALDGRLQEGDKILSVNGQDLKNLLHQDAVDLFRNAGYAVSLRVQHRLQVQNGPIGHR

T7: DFNB31_2, Q9P202
T7 sequence (Q9P202 274-371, limits assumed, looked up): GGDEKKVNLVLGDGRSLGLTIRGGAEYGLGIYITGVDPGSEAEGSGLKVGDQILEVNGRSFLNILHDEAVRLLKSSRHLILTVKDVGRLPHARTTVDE

T8: PARD3B_1, Q8TEW8
T8 sequence (Q8TEW8 196-299, limits assumed, looked up): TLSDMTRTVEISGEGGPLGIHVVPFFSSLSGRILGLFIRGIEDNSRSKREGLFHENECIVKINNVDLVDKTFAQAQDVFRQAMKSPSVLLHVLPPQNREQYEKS

T9: PTPN13_1, Q12923
T9 sequence (Q12923 1088-1188, limits assumed, looked up): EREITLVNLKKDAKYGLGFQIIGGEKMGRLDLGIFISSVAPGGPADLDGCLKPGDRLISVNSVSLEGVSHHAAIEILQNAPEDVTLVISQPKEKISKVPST

T10: GRIP1_2, Q9Y3R0
T10 sequence (Q9Y3R0 145-248, limits assumed, looked up): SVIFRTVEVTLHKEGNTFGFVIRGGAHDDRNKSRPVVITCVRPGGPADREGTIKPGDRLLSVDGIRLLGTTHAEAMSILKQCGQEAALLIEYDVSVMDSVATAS

T11: HTRA3, P83110
T11 sequence (P83110 354-453, limits assumed, looked up): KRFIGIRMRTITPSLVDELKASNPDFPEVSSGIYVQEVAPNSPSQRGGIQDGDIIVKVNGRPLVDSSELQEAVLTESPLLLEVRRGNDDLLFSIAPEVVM

T12: LIN7B, Q9HAP6
T12 sequence (Q9HAP6 88-185, limits assumed, looked up): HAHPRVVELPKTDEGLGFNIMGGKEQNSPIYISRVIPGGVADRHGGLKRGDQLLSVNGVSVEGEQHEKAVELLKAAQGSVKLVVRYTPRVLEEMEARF


Tests used:
Assay in all cases: holdup assay
Design in all cases: key: below the threshold = too weak to quantify, mostly under pKd 3.1 to 4
Details in all cases: plain residues with an end cap or a label only (N-terminal biotin on a linker: ado-ado)
GORASP2, Q9H8Y8 = biological target: GORASP2, Q9H8Y8
DLG3_3, Q92796 = biological target: T1, DLG3_3, Q92796
TJP2_1, Q9UDY2 = biological target: TJP2_1, Q9UDY2
TJP2_1, Q9UDY2, sequence (Q9UDY2 24-128): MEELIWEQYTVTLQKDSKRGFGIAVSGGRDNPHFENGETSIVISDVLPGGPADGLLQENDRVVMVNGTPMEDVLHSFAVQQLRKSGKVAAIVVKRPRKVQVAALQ

TJP1_3, Q07157 = biological target: TJP1_3, Q07157
TJP1_3, Q07157, sequence (Q07157 416-512): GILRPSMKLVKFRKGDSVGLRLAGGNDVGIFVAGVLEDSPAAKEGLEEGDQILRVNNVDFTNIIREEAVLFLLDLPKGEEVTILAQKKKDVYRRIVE

MPDZ_10, O75970 = biological target: T2, MPDZ_10, O75970
GRIP1_4, Q9Y3R0 = biological target: T3, GRIP1_4, Q9Y3R0
DLG3_2, Q92796 = biological target: T4, DLG3_2, Q92796
HTRA1, Q92743 = biological target: HTRA1, Q92743
HTRA1, Q92743, sequence (Q92743 360-477): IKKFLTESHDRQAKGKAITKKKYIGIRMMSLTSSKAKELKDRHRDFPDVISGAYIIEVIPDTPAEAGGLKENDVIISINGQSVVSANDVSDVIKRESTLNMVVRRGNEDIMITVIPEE

IL16_1, Q14005 = biological target: IL16_1, Q14005
IL16_1, Q14005, sequence (Q14005 210-306): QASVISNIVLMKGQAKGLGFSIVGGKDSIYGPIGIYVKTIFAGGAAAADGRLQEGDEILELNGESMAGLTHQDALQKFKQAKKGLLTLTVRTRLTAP

RHPN1, Q8TCX5 = biological target: T5, RHPN1, Q8TCX5
DLG4_2, P78352 = biological target: DLG4_2, P78352
DLG4_2, P78352, sequence (P78352 155-259): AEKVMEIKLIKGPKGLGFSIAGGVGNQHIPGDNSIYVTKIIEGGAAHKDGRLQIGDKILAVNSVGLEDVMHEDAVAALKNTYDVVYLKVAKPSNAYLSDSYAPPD

NOS1, P29475 = biological target: NOS1, P29475
NOS1, P29475, sequence (P29475 9-101): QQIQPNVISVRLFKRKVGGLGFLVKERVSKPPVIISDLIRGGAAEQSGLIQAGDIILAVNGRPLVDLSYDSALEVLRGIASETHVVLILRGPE

DLG2_2, Q15700 = biological target: DLG2_2, Q15700
DLG2_2, Q15700, sequence (Q15700 189-283): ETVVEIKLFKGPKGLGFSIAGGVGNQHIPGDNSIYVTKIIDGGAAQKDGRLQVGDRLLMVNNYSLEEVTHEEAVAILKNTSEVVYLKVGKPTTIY

SYNJ2BP, P57105 = biological target: T6, SYNJ2BP, P57105
LAP2, Q96RT1 = biological target: LAP2, Q96RT1
LAP2, Q96RT1, sequence (Q96RT1 other isoform, or with tags, fused parts or gaps): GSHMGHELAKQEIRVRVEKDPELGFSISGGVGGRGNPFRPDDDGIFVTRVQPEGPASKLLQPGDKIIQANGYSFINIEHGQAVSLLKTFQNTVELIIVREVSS

DFNB31_2, Q9P202 = biological target: T7, DFNB31_2, Q9P202
PARD3B_1, Q8TEW8 = biological target: T8, PARD3B_1, Q8TEW8
Inadl_9, Q8NI35 = biological target: Inadl_9, Q8NI35
Inadl_9, Q8NI35, sequence (Q8NI35 1530-1615): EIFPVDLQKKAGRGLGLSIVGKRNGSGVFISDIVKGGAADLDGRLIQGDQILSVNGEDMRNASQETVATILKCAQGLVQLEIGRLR

Inadl_5, Q8NI35 = biological target: Inadl_5, Q8NI35
Inadl_5, Q8NI35, sequence (Q8NI35 673-780): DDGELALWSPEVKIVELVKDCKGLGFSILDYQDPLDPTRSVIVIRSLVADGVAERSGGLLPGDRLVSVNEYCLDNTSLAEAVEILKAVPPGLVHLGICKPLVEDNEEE

PTPN13_1, Q12923 = biological target: T9, PTPN13_1, Q12923
NHERF4_4, Q86UT5 = biological target: NHERF4_4, Q86UT5
NHERF4_4, Q86UT5, sequence (Q86UT5 464-550): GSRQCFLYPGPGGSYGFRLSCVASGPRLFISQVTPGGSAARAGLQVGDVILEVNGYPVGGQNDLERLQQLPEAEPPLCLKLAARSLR

Inadl_10, Q8NI35 = biological target: Inadl_10, Q8NI35
Inadl_10, Q8NI35, sequence (Q8NI35 1673-1763): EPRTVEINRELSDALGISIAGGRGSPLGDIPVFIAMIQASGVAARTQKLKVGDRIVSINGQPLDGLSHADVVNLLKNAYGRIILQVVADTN

GRIP1_2, Q9Y3R0 = biological target: T10, GRIP1_2, Q9Y3R0
HTRA3, P83110 = biological target: T11, HTRA3, P83110
LIN7B, Q9HAP6 = biological target: T12, LIN7B, Q9HAP6

Row | Binder | pKd (GORASP2, Q9H8Y8) | pKd (DLG3_3, Q92796) | pKd (TJP2_1, Q9UDY2) | pKd (TJP1_3, Q07157) | pKd (MPDZ_10, O75970) | pKd (GRIP1_4, Q9Y3R0) | pKd (DLG3_2, Q92796) | pKd (HTRA1, Q92743) | pKd (IL16_1, Q14005) | pKd (RHPN1, Q8TCX5) | pKd (DLG4_2, P78352) | pKd (NOS1, P29475) | pKd (DLG2_2, Q15700) | pKd (SYNJ2BP, P57105) | pKd (LAP2, Q96RT1) | pKd (DFNB31_2, Q9P202) | pKd (PARD3B_1, Q8TEW8) | pKd (Inadl_9, Q8NI35) | pKd (Inadl_5, Q8NI35) | pKd (PTPN13_1, Q12923) | further results
1 | HYPASPDSWV [CTNND2, Q9UQB3] | 4.51 | below the threshold | 4.37 | 3.81 | below the threshold | below the threshold | 4.3 | 4.71 | 4.24 | 4.42 | 4.72 | 3.86 | 4.09 | 5.07 | 5.58 | below the threshold | 3.52 | 3.9 | 3.64 | below the threshold | pKd (NHERF4_4, Q86UT5): below the threshold; pKd (Inadl_10, Q8NI35): 3.53; pKd (GRIP1_2, Q9Y3R0): below the threshold; pKd (HTRA3, P83110): 5.66; pKd (LIN7B, Q9HAP6): below the threshold
2 | KLQNPNQSVV [TYRP1, P17643] | 3.73 | below the threshold | below the threshold | below the threshold | 3.54 | below the threshold | 3.86 | 4.11 | 3.94 | 3.77 | 4.11 | below the threshold | 3.86 | 3.91 | below the threshold | below the threshold | below the threshold | below the threshold | below the threshold | below the threshold | pKd (NHERF4_4, Q86UT5): below the threshold; pKd (Inadl_10, Q8NI35): below the threshold; pKd (GRIP1_2, Q9Y3R0): below the threshold; pKd (HTRA3, P83110): below the threshold; pKd (LIN7B, Q9HAP6): below the threshold
3 | VCMGDHWFDV [PRKN, O60260] | 4.77 | below the threshold | below the threshold | below the threshold | below the threshold | below the threshold | below the threshold | 4.96 | below the threshold | below the threshold | below the threshold | 3.51 | below the threshold | below the threshold | 3.67 | below the threshold | 4.78 | 3.69 | below the threshold | below the threshold | pKd (NHERF4_4, Q86UT5): 4.3; pKd (Inadl_10, Q8NI35): below the threshold; pKd (GRIP1_2, Q9Y3R0): below the threshold; pKd (HTRA3, P83110): 4.49; pKd (LIN7B, Q9HAP6): below the threshold
4 | SQPLLVHDDV [KIT, P10721] | below the threshold | below the threshold | below the threshold | below the threshold | 3.93 | below the threshold | below the threshold | below the threshold | below the threshold | below the threshold | below the threshold | below the threshold | below the threshold | below the threshold | 3.56 | below the threshold | below the threshold | below the threshold | below the threshold | below the threshold | pKd (NHERF4_4, Q86UT5): below the threshold; pKd (Inadl_10, Q8NI35): below the threshold; pKd (GRIP1_2, Q9Y3R0): below the threshold; pKd (HTRA3, P83110): below the threshold; pKd (LIN7B, Q9HAP6): below the threshold

Now from value to binder, other results behind:

Row | pKd (GORASP2, Q9H8Y8) | pKd (DLG3_3, Q92796) | pKd (TJP2_1, Q9UDY2) | pKd (TJP1_3, Q07157) | pKd (MPDZ_10, O75970) | pKd (GRIP1_4, Q9Y3R0) | pKd (DLG3_2, Q92796) | pKd (HTRA1, Q92743) | pKd (IL16_1, Q14005) | pKd (RHPN1, Q8TCX5) | pKd (DLG4_2, P78352) | pKd (NOS1, P29475) | pKd (DLG2_2, Q15700) | pKd (SYNJ2BP, P57105) | pKd (LAP2, Q96RT1) | pKd (DFNB31_2, Q9P202) | pKd (PARD3B_1, Q8TEW8) | pKd (Inadl_9, Q8NI35) | pKd (Inadl_5, Q8NI35) | pKd (PTPN13_1, Q12923) | Binder | further results
5 | below the threshold | below the threshold | below the threshold | below the threshold | below the threshold | below the threshold | 4.26 | 3.66 | below the threshold | 4.2 | 3.64 | below the threshold | 3.51 | below the threshold | below the threshold | below the threshold | below the threshold | below the threshold | below the threshold | below the threshold | QRYPGNQTTC [CCL24, O00175] | pKd (NHERF4_4, Q86UT5): below the threshold; pKd (Inadl_10, Q8NI35): below the threshold; pKd (GRIP1_2, Q9Y3R0): below the threshold; pKd (HTRA3, P83110): 3.74; pKd (LIN7B, Q9HAP6): 3.85
6 | 3.6 | below the threshold | 4.28 | below the threshold | below the threshold | below the threshold | below the threshold | 3.72 | below the threshold | below the threshold | below the threshold | 3.57 | below the threshold | below the threshold | below the threshold | below the threshold | below the threshold | 3.71 | below the threshold | below the threshold | PKSNSSKEYV [CLDN7, O95471] | pKd (NHERF4_4, Q86UT5): below the threshold; pKd (Inadl_10, Q8NI35): below the threshold; pKd (GRIP1_2, Q9Y3R0): below the threshold; pKd (HTRA3, P83110): 3.8; pKd (LIN7B, Q9HAP6): below the threshold

Source: paper PMC9482650, “Quantitative fragmentomics allow affinity mapping of interactomes” (Nature Communications, 2022)
